B1: NP8 (antibody, V domains shown)
VH: EVQLVESGGGLVQPGGSLRLSCAASGFTINSFGIHWVRQAPGKGLEWVAGIGPFGGSTFYADSVKGRFTISADTSKNTAYLQMNSLRAEDTAVYYCARGFYWFDYWGQGTLVTVSS
VL: DIQMTQSPSSLSASVGDRVTITCRASQDVDDSVAWYQQKPGKAPKLLIYWTRYLYSGVPSRFSGSGSGTDFTLTISSLQPEDFATYYCQQGYNYPLTFGQGTKVEIKR
B2: NP14 (antibody, V domains shown)
VH: EVQLVESGGGLVQPGGSLRLSCAASGFTIDNGGIHWVRQAPGKGLEWVASIWPSWGSTSYADSVKGRFTISADTSKNTAYLQMNSLRAEDTAVYYCARFNFGVFGVMDYWGQGTLVTVSS
VL: DIQMTQSPSSLSASVGDRVTITCRASQDVDNDVAWYQQKPGKAPKLLIYGPRGLYSGVPSRFSGSGSGTDFTLTISSLQPEDFATYYCQQYSSWPLTFGQGTKVEIKR
B3: NP9 (antibody, V domains shown)
VH: EVQLVESGGGLVQPGGSLRLSCAASGFTINNGWIHWVRQAPGKGLEWVAGIGPYWGFTSYADSVKGRFMISADTSKNTAYLQMNSLRAEDTAVYYCARFDSDHDHHYSYYYYYDNGYMDYWGQGTLVTVSS
VL: DIQMTQSPSSLSASVGDRVTITCRASQDVWFSVAWYQQKPGKAPKLLIYGTTSLYSGVPSRFSGSGSGTDFTLTISSLQPEDFATYYCQQYFNYPLTFGQGTKVEIKR
B4: NP13 (antibody, V domains shown)
VH: EVQLVESGGGLVQPGGSLRLSCAASGFTINNYGIHWVRQAPGKGLEWVASIGPYGGSTYYADSVKGRFTISADTSKNTAYLQMNSLRAEDTAVYYCARFGYFNWLDMDYWGQGTLVTVSS
VL: DIQMTQSPSSLSASVGDRVTITCRASQDVGYWVAWYQQKPGKAPKLLISSASGLYSGVPSRFSGSGSGTDFTLTISSLQPEDFATYYCQQGWDWPITFGQGTKVEIKR
B5: NP4 (antibody, V domains shown)
VH: EVQLVESGGGLVQPGGSLRLSCAASGFTISNSSIHWVRQAPGKGLEWVAGIGPSGGYTFYADSVKGRFTISADTSKNTAYLQMNSLRAEDTAVYYCARFHSHNSYYSYSHYGYMDYWGQGTLVTVSS
VL: DIQMTQSPSSLSASVGDRVTITCRASQDVGWGVAWYQQKPGKAPKLLISGPSSLYSGVPSRFSGSGSGTDFTLTISSLQPEDFATYYCQQYFNYPITFGQGTKVEIKR

Each binder was assayed against NPA3 (influenza A virus A/Aalborg/INS132/2009 …, UniProt P68042 1-489) (assay: ELISA on recombinant NP).
Work on B1 yielded an EC50 of 0.07 nM.
In the case of B2, the EC50 is reported as 19.7 nM.
Work on B3 yielded an EC50 of 4.38 nM.
B4 was tested, and the EC50 was 9.36 nM.
With B5 the EC50 was 10.1 nM.

Reference: patent US20230212554A1 (published 2023)
